The values below come from paper PMC11419269 (Research Square, 2024).

B1: TREM2 R76D (receptor)
chain: HNTTVFQGVAGQSLQVSCPYDSMKHWGRRKAWCRQLGEKGPCQRVVSTHNLWLLSFLDRWNGSTAITDDTLGGTLTITLRNLQPHDAGLYQCQSLHGSEADTLRKVLVEVLADPLD
modifications: biotin on the C-terminal BirA biotinylation sequence
B2: TREM2 T85D (receptor)
chain: B1 chain with D58R, T67D
modifications: biotin on the C-terminal BirA biotinylation sequence
B3: TREM2 R122D/K123D (receptor)
chain: B1 chain with D58R, R104D, K105D
modifications: biotin on the C-terminal BirA biotinylation sequence
B4: TREM2 L75D (receptor)
chain: B1 chain with L57D, D58R
modifications: biotin on the C-terminal BirA biotinylation sequence
B5: TREM2 L69D/L71D (receptor)
chain: B1 chain with L51D, L53D, D58R
modifications: biotin on the C-terminal BirA biotinylation sequence
B6: TREM2 R77D (receptor)
chain: B1 chain with D58R, R59D
modifications: biotin on the C-terminal BirA biotinylation sequence
B7: TREM2 R122E (receptor)
chain: B1 chain with D58R, R104E
modifications: biotin on the C-terminal BirA biotinylation sequence
B8: TREM2 R46D (receptor)
chain: B1 chain with R28D, D58R
modifications: biotin on the C-terminal BirA biotinylation sequence
B9: TREM2 W44D/L69D/L71D (receptor)
chain: B1 chain with W26D, L51D, L53D, D58R
modifications: biotin on the C-terminal BirA biotinylation sequence
B10: TREM2 W78D (receptor)
chain: B1 chain with D58R, W60D
modifications: biotin on the C-terminal BirA biotinylation sequence
B11: TREM2 WT (receptor, human, UniProt Q9NZC2 19-230, looked up)
chain: HNTTVFQGVAGQSLQVSCPYDSMKHWGRRKAWCRQLGEKGPCQRVVSTHNLWLLSFLRRWNGSTAITDDTLGGTLTITLRNLQPHDAGLYQCQSLHGSEADTLRKVLVEVLADPLDHRDAGDLWFPGESESFEDAHVEHSISRSLLEGEIPFPPTS
modifications: biotin on the C-terminal BirA biotinylation sequence
notes: TREM2, human; also called triggering receptor expressed on myeloid cells-2; source: Expi293F cells, purified, enzymatically biotinylated using BirA
B12: TREM2 R47H (receptor, human, UniProt Q9NZC2 19-230, looked up)
chain: B11 chain with R29H
modifications: biotin on the C-terminal BirA biotinylation sequence
notes: TREM2, human, AD risk variant; As m1 with the substitution; source: Expi293F cells, purified, enzymatically biotinylated using BirA
B13: TREM2 T96K (receptor, human, UniProt Q9NZC2 19-230, looked up)
chain: B11 chain with T78K
modifications: biotin on the C-terminal BirA biotinylation sequence
notes: as for B12
B14: TREM2 R62H (receptor, human, UniProt Q9NZC2 19-230, looked up)
chain: B11 chain with R44H
modifications: biotin on the C-terminal BirA biotinylation sequence
notes: as for B12
B15: TREM2 D87N (receptor, human, UniProt Q9NZC2 19-230, looked up)
chain: B11 chain with D69N
modifications: biotin on the C-terminal BirA biotinylation sequence
notes: as for B12

Changes are numbered by the printed parent chain. In names and notes the source's numbering stands.

The first assay has as its target T1, complement C1q.
T1 construct: source: bought: Complement Technology (Cat#A099); copies: 6 + 6 + 6
The experiment in a line: BLI; biotinylated TREM2 WT and variants immobilised on SA biosensors; C1q 62.5 – 1000 nM in PBS with 0.1% BSA and 0.005% Tween-20; 1:1 kinetic fits. The settings on record: both partners purified.
Turning to B1, the Kd – broadly, the free concentration of one partner at which half of the binding sites on the other are occupied at equilibrium, for simple one-to-one binding – was 13800 ± 4860 nM.

The molecule B2 returned a Kd of 110 ± 10 nM.

Consider B3, for which the Kd was 820 ± 40 nM.

Regarding B4, the affinity, expressed as Kd, was 110 ± 10 nM.

The next assay has as its target T2, Human IL-34 (19–241) (human, UniProt Q6ZMJ4 19-241).
T2 construct: IL-34, human, residues 19-241, cloned into pHLsec; the oligomeric state was not measured here; source: Expi293F cells, secreted, purified from the media using NiNTA chromatography
T2 sequence (looked up): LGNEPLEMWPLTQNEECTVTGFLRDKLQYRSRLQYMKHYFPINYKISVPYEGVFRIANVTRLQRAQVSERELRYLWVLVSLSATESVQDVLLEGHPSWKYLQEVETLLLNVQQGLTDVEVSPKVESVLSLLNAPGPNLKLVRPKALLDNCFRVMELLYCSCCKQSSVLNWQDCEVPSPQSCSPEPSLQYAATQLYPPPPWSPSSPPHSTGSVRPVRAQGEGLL
The experiment in a line: BLI; biotinylated TREM2 WT and variants immobilised on SA biosensors; IL-34 62.5 – 1000 nM in PBS with 0.1% BSA and 0.005% Tween-20; 1:1 kinetic fits. The settings on record: both partners purified. For orientation: BLI is a label-free optical method that tracks binding on a fibre tip over time.
B5 yielded a Kd of 20.2 ± 0.3 nM.

The molecule B2 came in with a dissociation constant Kd of 21.5 ± 0.6 nM. The Kd values of the last two molecules are within 1.5-fold of each other.

For the molecule B6, binding was put at a Kd of 114 ± 4 nM.

As for B3, the affinity, expressed as Kd, was 18.5 ± 0.3 nM.

With B7, binding was characterised by a dissociation constant (Kd) of 29.4 ± 0.4 nM.

Molecule B8 returned a Kd of 18 ± 0.3 nM.

On to B9, for which the equilibrium dissociation constant (Kd) was determined as 25.8 ± 0.3 nM.

B10: the Kd amounted to 17.2 ± 0.4 nM.

Regarding B4, the affinity, expressed as Kd, was 36.6 ± 0.9 nM. This Kd lies about 2.1-fold higher than the previous one.

On to B11, for which binding was put at a Kd of 16.5 ± 0.2 nM.

B12 returned a dissociation constant Kd of 79.8 ± 2.4 nM.

B13 registered a Kd of 23.7 ± 0.4 nM.

As for B14, the dissociation constant Kd is 75 nM.

B15 came in with a dissociation constant (Kd) of 28.4 ± 0.5 nM.
